Measured values reported in PMC11268095.

Tests used:
Test in all cases: BLI; BLItz, Ni-NTA biosensor; phospho-His-SrcKD or variant (58 μM, 5 μL) immobilised as bait for 3 min; rPTPεD1 or variant as analyte, association 120 s, dissociation 120 s; 20 mM Tris-HCl pH 7.5, 50 mM NaCl, 5 mM DTT; 100 μM ATP and 1 μM CSK added before every immobilisation; global fit
[1] = target: phospho-His-SrcKD-D518K (phosphorylated His-tagged Src kinase domain, Trp 260-Leu 533, K295M/Y416F and a change at 518) (UniProt P00523)
[2] = target: phospho-His-SrcKD-E486A (phosphorylated His-tagged Src kinase domain, Trp 260-Leu 533, K295M/Y416F/E486A) (UniProt P00523)
[3] = target: phospho-His-SrcKD (phosphorylated His-tagged Src kinase domain, Trp 260-Leu 533, K295M/Y416F) (UniProt P00523)

Kd [1] [µM] | koff [1] [s⁻¹] | kon [1] [M⁻¹ s⁻¹] | Kd [2] [µM] | koff [2] [s⁻¹] | kon [2] [M⁻¹ s⁻¹] | Kd [3] [µM] | koff [3] [s⁻¹] | kon [3] [M⁻¹ s⁻¹] | Substance
184 | 0.0661 | 360 | 80.4 | 0.0476 | 592 | 26.2 | 0.0284 | 1080 | rPTPεD1 (D1 domain of rPTP epsilon, Ser 101-Thr 400, C335A) (domain or fragment)
– | – | – | – | – | – | 352 | 0.0853 | 242 | rPTPεD1-K237D (D1 domain of rPTP epsilon, Ser 101-Thr 400, C335A/K237D) (domain or fragment)
– | – | – | – | – | – | 168 | 0.0341 | 202 | rPTPεD1-R220E (D1 domain of rPTP epsilon, Ser 101-Thr 400, C335A/R220E) (domain or fragment)
